Measured values as given in publication PMC5716044 (The Journal of Experimental Medicine, 2017).
Positions count from the first letter of the chain named. In names and notes the source's numbering stands.

B1: SORLA YWTD repeat/EGF-like region (aa 758-1,076) fused to Fc, WT (Fc fusion, UniProt Q92673 758-1076, looked up)
chain: NEFILYAVRKSIYRYDLASGATEQLPLTGLRAAVALDFDYEHNCLYWSDLALDVIQRLCLNGSTGQEVIINSGLETVEALAFEPLSQLLYWVDAGFKKIEVANPDGDFRLTIVNSSVLDRPRALVLVPQEGVMFWTDWGDLKPGIYRSNMDGSAAYHLVSEDVKWPNGISVDDQWIYWTDAYLECIERITFSGQQRSVILDNLPHPYAIAVFKNEIYWDDWSQLSIFRASKYSGSQMEILANQLTGLMDMKIFYKGKNTGSNACVPRPCSLLCLPKANNSRSCRCPEDVSSSVLPSGDLMCDCPQGYQLKNNTCVKQEN
B2: SORLA YWTD repeat/EGF-like region (aa 758-1,076) fused to Fc, T947M variant (Fc fusion, UniProt Q92673 758-1076, looked up)
chain: B1 chain with T190M

Target: full-length EphA4 containing C-terminal FLAG and hexahistidine tags (EphA4-FLAGhis6) (human, UniProt P54764 20-986)
Assay: pull-down

Sequence of full-length EphA4 containing C-terminal FLAG and hexahistidine tags (EphA4-FLAGhis6) (P54764 20-986): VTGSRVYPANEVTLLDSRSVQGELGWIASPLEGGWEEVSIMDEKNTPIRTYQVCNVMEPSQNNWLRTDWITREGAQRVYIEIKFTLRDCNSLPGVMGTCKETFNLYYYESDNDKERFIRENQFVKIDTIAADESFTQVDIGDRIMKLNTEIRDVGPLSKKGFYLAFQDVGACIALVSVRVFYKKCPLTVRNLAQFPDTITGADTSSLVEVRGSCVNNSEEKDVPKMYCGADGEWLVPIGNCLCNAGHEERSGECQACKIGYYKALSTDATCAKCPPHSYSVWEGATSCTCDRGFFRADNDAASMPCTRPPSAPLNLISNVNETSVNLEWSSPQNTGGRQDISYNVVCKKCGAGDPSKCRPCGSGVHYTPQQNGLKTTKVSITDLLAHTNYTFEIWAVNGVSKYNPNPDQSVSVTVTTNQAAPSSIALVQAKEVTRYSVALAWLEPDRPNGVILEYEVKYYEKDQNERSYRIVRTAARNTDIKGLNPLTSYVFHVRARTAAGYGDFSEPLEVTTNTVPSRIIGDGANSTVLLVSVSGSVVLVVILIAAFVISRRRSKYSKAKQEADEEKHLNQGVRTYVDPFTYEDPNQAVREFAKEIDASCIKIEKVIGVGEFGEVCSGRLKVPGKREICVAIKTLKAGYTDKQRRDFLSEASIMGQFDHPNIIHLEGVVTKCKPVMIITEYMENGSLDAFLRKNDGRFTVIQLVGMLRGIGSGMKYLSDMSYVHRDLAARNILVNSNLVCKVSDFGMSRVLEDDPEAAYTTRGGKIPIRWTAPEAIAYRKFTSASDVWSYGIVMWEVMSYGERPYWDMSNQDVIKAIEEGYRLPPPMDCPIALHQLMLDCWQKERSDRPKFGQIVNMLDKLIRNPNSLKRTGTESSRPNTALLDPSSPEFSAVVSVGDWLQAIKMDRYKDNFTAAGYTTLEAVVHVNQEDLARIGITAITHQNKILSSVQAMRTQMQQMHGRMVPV

Row | binding result | Binder
1 | binds | B1
2 | binds | B2
